# Source: patent US10100120B2, “Antibody which specifically binds to human CRTH2” (KYOWA HAKKO KIRIN CO., LTD, priority 2015, dated 2018)
# T1: mutated human CRTH2 with amino acid substitution (Homo sapiens, UniProt Q9Y5Y4, D171A/I173A/T172A)
# T1 construct: inserting genes encoding various mutants with amino acid substitution obtained by deleting termination codons; expressed in transfected cells; host or cells: CHO-S cells (Lifetechnologies), transient (phmAG1-MNLinker vector)
# T1 sequence (Q9Y5Y4 1-395 D171A/T172A/I173A): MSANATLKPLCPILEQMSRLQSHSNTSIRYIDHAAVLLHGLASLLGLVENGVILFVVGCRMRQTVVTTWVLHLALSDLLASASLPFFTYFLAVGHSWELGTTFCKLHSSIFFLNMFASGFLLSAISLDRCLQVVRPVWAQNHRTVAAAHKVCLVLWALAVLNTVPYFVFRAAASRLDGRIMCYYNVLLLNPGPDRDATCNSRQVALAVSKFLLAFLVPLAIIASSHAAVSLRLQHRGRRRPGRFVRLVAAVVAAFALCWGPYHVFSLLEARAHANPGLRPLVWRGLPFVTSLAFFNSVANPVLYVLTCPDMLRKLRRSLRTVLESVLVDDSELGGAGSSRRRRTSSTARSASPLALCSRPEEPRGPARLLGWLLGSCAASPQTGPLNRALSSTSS
# Tests used:
# [1] = biological target: T1, mutated human CRTH2 with amino acid substitution; assay: Epitope analysis using CHO-S cells which express mutated human CRTH2 with amino acid substitution; format: binding; conditions: mutant D171A, T172A, and I173A; antibody 10 μg/mL; relative to wild-type = 100%
# Description: A mutant with amino acid substitution expression vector obtained by partially substituting amino acid residues in an extracellular region with other amino acid residues among the amino acid sequences of human CRTH2 was prepared. Specifically, mutant with amino acid substitution expression vectors obtained by substitution of S2A; N4A; T6A and L7A; K8A, P9A, and L10A; P12A, L14A, and EISA; Q16E, R19H, and Q21R; H23A, S24A, and N25A; T26A, S27A, and I28A; D171A, T172A, and I173A; S174A, R175A, and L176A; D177A, G178A, and R179A; 1180A and M181A; Y183A, Y184A, and N185A; L187A, L188A, and L189A; N190A; P191A; G192A; P193A; D194A; R195A; D196A, and T198A; N275A, G277A, and L278A; P276A; P279A and L281A; P280A; or V282A, R283A, and R284A in the amino acid sequences represented by SEQ ID NO: 2 were respectively prepared. It should be noted that the above symbols in the amino acid substitution indicate [single letter code of an amino acid residue before substitution] [substitution position counting from the N terminal] [single letter code of the amino acid reside after substitution].
# Azami-Green tag was added to the intercellular C terminal region by inserting genes encoding various mutants with amino acid substitution obtained by deleting termination codons to the restriction enzyme sites of BamHI and HindIII using phmAG1-MNLinker (MBL) as expression vectors.
# The above-described vectors expressing mutants with amino acid substitution were prepared using 1) a method of entirely synthesizing gene sequences encoding mutants with amino acid substitution and inserting the gene sequences into a vector or 2) a method of performing site-specific mutation from a vector into which DNA which encodes the amino acid sequences of wild-type human CRTH2 represented by SEQ ID NO: 1 was inserted.
# CHO-S cells (Lifetechnologies) were used for preparing mutated human CRTH2 with amino acid substitution expressing cell lines. Free style CHO expression medium (Invitrogen) containing 8 mM L-Glutamine (Invitrogen) was used for subculturing cells and the cells were cultured by shaking under the conditions of 37° C. in the presence of 5% CO2.
# 25 μg of the mutated human CRTH2 with amino acid substitution expression vector prepared in (1) described above was dissolved in 400 μL of Opti-Pro SFM (Invitrogen) and 25 μL of a Freestyle MAX Reagent (Invitrogen) was dissolved in 400 μL of Opti-Pro SFM and each of them were allowed to stand at room temperature for 5 minutes. The two liquids were mixed with each other and allowed to stand at room temperature for 15 minutes. The mixed solution was added to the CHO-S culture solution and the cells were cultured for 24 hours, thereby obtaining cell lines which express mutated human CRTH2 with amino acid substitution.
# The CHO-S cells which express mutated human CRTH2 with amino acid substitution established in (2) were washed with SM, seeded in a 96-well plate such that one well has 2×10^5 cells, and centrifuged at 1700 rpm for 2 minutes. After the supernatant was removed, chLym2, LV0HV1, the anti-human CRTH2 antibody hu19A2 v52, hu8B1 v1, ch3C12, or ch31A5 prepared in Example 9, or a commercially available anti-human CRTH2 antibody BM16 (Santa Cruz) prepared to have a concentration of 10 μg/mL using SM was added thereto to cause a reaction at 4° C. for 1 hour.
# After the cells were washed, goat anti-Human IgG Alexa 647 (Molecular Probes) diluted with SM was added to wells to which chLym2, LV0HV1, hu19A2 v52, hu8B1 v1, ch3C12, or ch31A5 was added and goat anti-Rat IgG Alexa 647 (Molecular Probes) diluted with SM was added to wells to which BM16 was added at a final concentration of 10 μg/mL to cause a reaction at 4° C. for 1 hour.
# After the reaction, the cells were washed and suspended with SM, and the fluorescent intensity was analyzed by flow cytometry (BD Biosciences, FACS CantoII). […]
# [2] = tested on: human basophils; assay: Reactivity against human basophils, flow cytometry; format: binding; conditions: 10 μg/mL, 4° C., 1 hour; FIG. 9
# Description: To human peripheral blood collected by adding a heparin sodium injection liquid, the same amount of physiological saline for injection as the human peripheral blood was added and mixed with each other. 15 mL of Ficoll-Paque PREMIUM 1.084 (GE Healthcare) was added to a 50 mL centrifuge tube, 30 mL of the human peripheral blood diluted with physiological saline was overlaid thereon, and centrifugation was performed at room temperature and 1500 rpm for 30 minutes.
# After the centrifugation, the mononuclear cell layer was recovered using a pipette and washed twice with an MACS buffer. After the number of cells was counted, basophils were isolated by a negative selection method using Basophil Isolation Kit II, human (Miltenyi Biotec) according to the attached instructions.
# After the isolated cells were washed with SM, the isolated cells were seeded in a 96-well plate such that one well has 5×10^4 cells, and centrifuged at 2000 rpm for 2 minutes. […] After the cells were washed, the cells were suspended with SM, and the fluorescent intensity was analyzed by flow cytometry (BD Biosciences, FACS CantoII).
# [3] = tested on: Th2 cells; assay: Cytotoxic activity against Th2 cells: cytokine production of PBMC after antibody treatment; format: cell-based, human; conditions: antibody 10 μg/mL 20 hours, then anti-CD3/anti-CD28 stimulation 3 days
# Description: The mononuclear cell layer prepared in the same manner as in Example 13 was washed twice with RPMI-1640 (Wako Pure Chemical Industries) to which 1/10 volume FBS (GIBCO Inc.), 200 mM-L-Glutamine Stock Solution (NACALAI TESQUE, Inc.), 10 mM MEM Non-Essential Amino Acids Solution (GIBCO Inc.), 100 mM Sodium Pyruvate (GIBCO Inc.), 1 M HEPES Buffer Solution (GIBCO Inc.), and 1/100 volume Penicillin-Streptomycin, Liquid (GIBCO Inc.) were added [hereinafter, referred to as peripheral blood mononuclear cell (PBMC) culture medium], thereby preparing a 1×10^7 cells/mL cell suspension.
# The prepared cell suspension was seeded in a 96-well plate at 100 μL/well, chLym2 antibody, the humanized anti-human CRTH2 antibody LV0HV1 or the isotype control antibody described in Example 8 was added thereto at a final concentration of 10 μg/mL to cause a reaction in a 5% CO2 incubator at 37° C. for 20 hours.
# The cells after the reaction were washed 7 times with a PBMC culture medium to remove the test antibodies thoroughly. Thereafter, the cells were suspended with 100 μL of PBMC culture medium and seeded in a plate in which anti-CD3 antibody OKT3 (Abeam plc.) was immobilized at a concentration of 1 μg/mL. Next, an anti-CD28 antibody (BD Biosciences) prepared to have a concentration of 2 μg/mL was added thereto at 100 μL/well to cause a reaction in a 5% CO2 incubator at 37° C. for 3 days.
# The supernatant after the reaction was recovered, and cytokine in the supernatant was quantified using Human IFN-γ Flex Set (BD Biosciences), Human IL-5 Flex Set (BD Biosciences), and Human IL-13 Flex Set (BD Biosciences) according to the attached instructions.
molecule,measurement,setting,value
"chLym2: rat/human chimeric Lym2 antibody, Lym2 variable regions with human IgG1 and κ constant regions (antibody, V domains shown) VH: EVQLVESGGGLVQPGRSMKLSCAASGFTFSNYYMAWVRQAPKKGLEWVATISYDGSSTYYRDSVKGRFTISRDNAKSTLYLQMDSLRSEDTATYYCARHRGYYYSGAGYFDYWGQGVMVTVSS VL: DVVLTQTPVSLSVTLGDQASISCRSSQSLEYSDGYTYLEWYLQKPGQSPQVLIYGVSNRFSGVPDRFIGSGSGTDFTLKISRVEPEDLGVYYCFQATHDPLTFGSGTKLEIK",reactivity against cells expressing mutated human CRTH2,[1],additionally lost
same,reactivity against human basophils,[2],has reactivity
same,production of IL-5 (Th2 cytokine),[3]; FIG. 12(A),reduced
same,production of IL-13 (Th2 cytokine),[3]; FIG. 12(A),reduced
same,production of IFN-γ (Th1 cytokine),[3]; FIG. 12(B),not changed
